From US20240270846A1 (published 2024)

These binders were tested against T1, CD3 epsilon homodimer protein (UniProt P07766 23-126) (assay: SPR Biacore T200, CD3e homodimer on chip, antibody analyte;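 further: CD3 epsilon homodimer amine-coupled on CM4 sensor chip, antibodies injected as analyte at 25 °C in HBS-EP+, ratio ≥0.8 taken as binding retained versus unaltered parent antibody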).
T1 construct: Construct of the homodimer is not described; also called CD3 (CD3 epsilon)
T1 sequence (P07766 23-126): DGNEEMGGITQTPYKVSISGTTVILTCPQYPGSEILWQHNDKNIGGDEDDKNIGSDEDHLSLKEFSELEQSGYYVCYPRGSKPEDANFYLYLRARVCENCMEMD

Binder | ratio of amounts bound (altered form/GLS3000)
GLS3000 H34R one-arm antibody (antibody, human IgG1, kappa, L234A L235A, N297A, name in Kabat numbering) light: DIVMTQSPLSLPVTPGEPASISCRSSQSLVHSNRNTYLRWYQQKPGQAPRLLIYKVSNRFSGVPDRFSGSGSGTDFTLKISRVEAEDVGVYYCGQGTQVPYTFGQGTKLEIKRTVAAPSVFIFPPSDEQLKSGTASVVCLLNNFYPREAKVQWKVDNALQSGNSQESVTEQDSKDSTYSLSSTLTLSKADYEKHKVYACEVTHQGLSSPVTKSFNRGEC heavy: QVQLVESGGGVVQPGRSLRLSCAASGFTFSNAWMHWVRQAPGKGLEWVAQIKAKSNNYATYYAESVKGRFTISRDDSKNSLYLQMNSLKTEDTAVYYCRYVHYGAYYGVDAWGQGTTVTVSSASTKGPSVFPLAPSSKSTSGGTAALGCLVKDYFPEPVTVSWNSGALTSGVHTFPAVLQSSGLYSLSSVVTVPSSSLGTQTYICNVNHKPSNTKVDKKVEPKSCDKTHTCPPCPAPEAAGGPSVFLFPPKPKDTLMISRTPEVTCVVVDVSHEDPEVKFNWYVDGVEVHNAKTKPREEQYASTYRVVSVLTVLHQDWLNGKEYKCKVSNKALPAPIEKTISKAKGQPREPQVYTLPPSRCELTKNQVSLSCAVKGFYPSDIAVEWESNGQPENNYKTTPPVLDSDGSFFLVSKLTVDKSRWQQGNVFSCSVMHEALHNHYTQKSLSLSPDYKDDDDK EPKSSDKTHTCPPCPAPELLGGPSVFLFPPKPKDTLMISRTPEVTCVVVDVSHEDPEVKFNWYVDGVEVHNAKTKPREEQYNSTYRVVSVLTVLHQDWLNGKEYKCKVSNKALPAPIEKTISKAKGQPREPQVCTLPPSRDELTKNQVSLWCLVKGFYPSDIAVEWESNGQPENNYKTTPPVLDSDGSFFLYSKLTVDKSRWQQGNVFSCSVMHEALHNRYTQKSLSLSP | 0.2
GLS3000 H34S one-arm antibody (antibody, human IgG1, kappa, L234A L235A, N297A, name in Kabat numbering) light: DIVMTQSPLSLPVTPGEPASISCRSSQSLVHSNRNTYLSWYQQKPGQAPRLLIYKVSNRFSGVPDRFSGSGSGTDFTLKISRVEAEDVGVYYCGQGTQVPYTFGQGTKLEIKRTVAAPSVFIFPPSDEQLKSGTASVVCLLNNFYPREAKVQWKVDNALQSGNSQESVTEQDSKDSTYSLSSTLTLSKADYEKHKVYACEVTHQGLSSPVTKSFNRGEC heavy: QVQLVESGGGVVQPGRSLRLSCAASGFTFSNAWMHWVRQAPGKGLEWVAQIKAKSNNYATYYAESVKGRFTISRDDSKNSLYLQMNSLKTEDTAVYYCRYVHYGAYYGVDAWGQGTTVTVSSASTKGPSVFPLAPSSKSTSGGTAALGCLVKDYFPEPVTVSWNSGALTSGVHTFPAVLQSSGLYSLSSVVTVPSSSLGTQTYICNVNHKPSNTKVDKKVEPKSCDKTHTCPPCPAPEAAGGPSVFLFPPKPKDTLMISRTPEVTCVVVDVSHEDPEVKFNWYVDGVEVHNAKTKPREEQYASTYRVVSVLTVLHQDWLNGKEYKCKVSNKALPAPIEKTISKAKGQPREPQVYTLPPSRCELTKNQVSLSCAVKGFYPSDIAVEWESNGQPENNYKTTPPVLDSDGSFFLVSKLTVDKSRWQQGNVFSCSVMHEALHNHYTQKSLSLSPDYKDDDDK EPKSSDKTHTCPPCPAPELLGGPSVFLFPPKPKDTLMISRTPEVTCVVVDVSHEDPEVKFNWYVDGVEVHNAKTKPREEQYNSTYRVVSVLTVLHQDWLNGKEYKCKVSNKALPAPIEKTISKAKGQPREPQVCTLPPSRDELTKNQVSLWCLVKGFYPSDIAVEWESNGQPENNYKTTPPVLDSDGSFFLYSKLTVDKSRWQQGNVFSCSVMHEALHNRYTQKSLSLSP | 0.78
GLS3000 H34T one-arm antibody (antibody, human IgG1, kappa, L234A L235A, N297A, name in Kabat numbering) light: DIVMTQSPLSLPVTPGEPASISCRSSQSLVHSNRNTYLTWYQQKPGQAPRLLIYKVSNRFSGVPDRFSGSGSGTDFTLKISRVEAEDVGVYYCGQGTQVPYTFGQGTKLEIKRTVAAPSVFIFPPSDEQLKSGTASVVCLLNNFYPREAKVQWKVDNALQSGNSQESVTEQDSKDSTYSLSSTLTLSKADYEKHKVYACEVTHQGLSSPVTKSFNRGEC heavy: QVQLVESGGGVVQPGRSLRLSCAASGFTFSNAWMHWVRQAPGKGLEWVAQIKAKSNNYATYYAESVKGRFTISRDDSKNSLYLQMNSLKTEDTAVYYCRYVHYGAYYGVDAWGQGTTVTVSSASTKGPSVFPLAPSSKSTSGGTAALGCLVKDYFPEPVTVSWNSGALTSGVHTFPAVLQSSGLYSLSSVVTVPSSSLGTQTYICNVNHKPSNTKVDKKVEPKSCDKTHTCPPCPAPEAAGGPSVFLFPPKPKDTLMISRTPEVTCVVVDVSHEDPEVKFNWYVDGVEVHNAKTKPREEQYASTYRVVSVLTVLHQDWLNGKEYKCKVSNKALPAPIEKTISKAKGQPREPQVYTLPPSRCELTKNQVSLSCAVKGFYPSDIAVEWESNGQPENNYKTTPPVLDSDGSFFLVSKLTVDKSRWQQGNVFSCSVMHEALHNHYTQKSLSLSPDYKDDDDK EPKSSDKTHTCPPCPAPELLGGPSVFLFPPKPKDTLMISRTPEVTCVVVDVSHEDPEVKFNWYVDGVEVHNAKTKPREEQYNSTYRVVSVLTVLHQDWLNGKEYKCKVSNKALPAPIEKTISKAKGQPREPQVCTLPPSRDELTKNQVSLWCLVKGFYPSDIAVEWESNGQPENNYKTTPPVLDSDGSFFLYSKLTVDKSRWQQGNVFSCSVMHEALHNRYTQKSLSLSP | 0.89
GLS3000 H34V one-arm antibody (antibody, human IgG1, kappa, L234A L235A, N297A, name in Kabat numbering) light: DIVMTQSPLSLPVTPGEPASISCRSSQSLVHSNRNTYLVWYQQKPGQAPRLLIYKVSNRFSGVPDRFSGSGSGTDFTLKISRVEAEDVGVYYCGQGTQVPYTFGQGTKLEIKRTVAAPSVFIFPPSDEQLKSGTASVVCLLNNFYPREAKVQWKVDNALQSGNSQESVTEQDSKDSTYSLSSTLTLSKADYEKHKVYACEVTHQGLSSPVTKSFNRGEC heavy: QVQLVESGGGVVQPGRSLRLSCAASGFTFSNAWMHWVRQAPGKGLEWVAQIKAKSNNYATYYAESVKGRFTISRDDSKNSLYLQMNSLKTEDTAVYYCRYVHYGAYYGVDAWGQGTTVTVSSASTKGPSVFPLAPSSKSTSGGTAALGCLVKDYFPEPVTVSWNSGALTSGVHTFPAVLQSSGLYSLSSVVTVPSSSLGTQTYICNVNHKPSNTKVDKKVEPKSCDKTHTCPPCPAPEAAGGPSVFLFPPKPKDTLMISRTPEVTCVVVDVSHEDPEVKFNWYVDGVEVHNAKTKPREEQYASTYRVVSVLTVLHQDWLNGKEYKCKVSNKALPAPIEKTISKAKGQPREPQVYTLPPSRCELTKNQVSLSCAVKGFYPSDIAVEWESNGQPENNYKTTPPVLDSDGSFFLVSKLTVDKSRWQQGNVFSCSVMHEALHNHYTQKSLSLSPDYKDDDDK EPKSSDKTHTCPPCPAPELLGGPSVFLFPPKPKDTLMISRTPEVTCVVVDVSHEDPEVKFNWYVDGVEVHNAKTKPREEQYNSTYRVVSVLTVLHQDWLNGKEYKCKVSNKALPAPIEKTISKAKGQPREPQVCTLPPSRDELTKNQVSLWCLVKGFYPSDIAVEWESNGQPENNYKTTPPVLDSDGSFFLYSKLTVDKSRWQQGNVFSCSVMHEALHNRYTQKSLSLSP | 0.85
